Ends that are not written are not given here.

This note sets out measurements from article PMC10505172, “Discovery and pharmacophoric characterization of chemokine network inhibitors using phage-display, saturation mutagenesis and computational modelling” (Nature Communications, 2023).

One assay deals with CXCL6 (human, UniProt P80162 38-114). In words: cell-based or functional assay.
Another assay deals with T1, CCL8 (human, UniProt P80075 24-99).
T1 sequence (looked up): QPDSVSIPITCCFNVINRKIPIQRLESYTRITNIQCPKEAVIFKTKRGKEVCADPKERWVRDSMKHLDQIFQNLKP
Kind of assay: cell-based or functional assay.

Regarding EEDDYTAYAPLTCYFT-NH2 [HD2 synthetic peptide], in the assay with CXCL6, the “IC50 (median of biological replicates) of inhibition of CXCL6-induced cell migration, chemokine at EC80” value is 1.4e-05 molar. Besides, the “IC50 (median of biological replicates) of inhibition of CCL8-induced cell migration, chemokine at EC80” value with CCL8 amounted to 1.9e-08 molar.
